T1: endogenous FADD (human (endogenous in Jurkat, BJAB and …, UniProt Q13158 1-208))
T1 construct: FADD, endogenous; source: endogenous, lysates of caspase-8 null Jurkat, BJAB and HaCaT cells
T1 sequence (looked up): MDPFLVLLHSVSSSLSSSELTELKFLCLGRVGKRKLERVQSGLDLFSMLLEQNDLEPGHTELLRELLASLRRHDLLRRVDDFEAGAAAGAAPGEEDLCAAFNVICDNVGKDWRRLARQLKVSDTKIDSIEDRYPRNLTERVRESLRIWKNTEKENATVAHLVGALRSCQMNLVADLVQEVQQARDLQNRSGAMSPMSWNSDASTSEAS


What was measured:
[1] = biological target: endogenous caspase-8 (human (endogenous in BJAB and HaCaT)) (UniProt Q14790); experiment: affinity purification with mass spectrometry; native CD95 DISC from c-FLIPS overexpressing HaCaT cells; label-free absolute quantification (TOP 3) by LC-MS/MS, n = 3
[2] = biological target: endogenous caspase-8 (human (endogenous in BJAB and HaCaT)) (UniProt Q14790); experiment: affinity purification with mass spectrometry; native TRAIL DISC from c-FLIPS overexpressing BJAB cells; label-free absolute quantification (TOP 3) by LC-MS/MS, n = 3
endogenous FADD [3] = biological target: T1, endogenous FADD; experiment: as above; settings: partners not purified
endogenous FADD [4] = biological target: T1, endogenous FADD; experiment: affinity purification with mass spectrometry; native TRAIL DISC from control (vector) BJAB cells; label-free absolute quantification (TOP 3) by LC-MS/MS, n = 3; settings: partners not purified

| stoichiometry N [1] | stoichiometry N [2] | stoichiometry N (endogenous FADD [3]) | stoichiometry N (endogenous FADD [4]) | Molecule |
| --- | --- | --- | --- | --- |
| 1 | 1 | – | – | c-FLIPS stably overexpressed in BJAB or HaCaT cells (natural protein) |
| – | – | ~1 | ~6 fold | endogenous caspase-8 (natural protein, human (endogenous in BJAB and HaCaT), UniProt Q14790 1-479, looked up, caspase-8, endogenous; procaspase-8 and p43/41 cleavage fragments detected; also called procaspase-8; p43/41 cleavage fragments; source: endogenous, BJAB and HaCaT lysates) MDFSRNLYDIGEQLDSEDLASLKFLSLDYIPQRKQEPIKDALMLFQRLQEKRMLEESNLSFLKELLFRINRLDLLITYLNTRKEEMERELQTPGRAQISAYRVMLYQISEEVSRSELRSFKFLLQEEISKCKLDDDMNLLDIFIEMEKRVILGEGKLDILKRVCAQINKSLLKIINDYEEFSKERSSSLEGSPDEFSNGEELCGVMTISDSPREQDSESQTLDKVYQMKSKPRGYCLIINNHNFAKAREKVPKLHSIRDRNGTHLDAGALTTTFEELHFEIKPHDDCTVEQIYEILKIYQLMDHSNMDCFICCILSHGDKGIIYGTDGQEAPIYELTSQFTGLKCPSLAGKPKVFFIQACQGDNYQKGIPVETDSEEQPYLEMDLSSPQTRYIPDEADFLLGMATVNNCVSYRNPAEGTWYIQSLCQSLRERCPRGDDILTILTEVNYEVSNKDDKKNMGKQMPQPTFTLRKKLVFPSD |

Reference: PMC4819448, “Co-operative and Hierarchical Binding of c-FLIP and Caspase-8: A Unified Model Defines How c-FLIP Isoforms Differentially Control Cell Fate” (Molecular Cell, 2016)
